Experimental findings from patent US20040253236A1 are described below.

The target of one experiment is collagen type I. The experiment is described as follows: cell-based or functional assay.
For experiment [1], the target named is baboon platelet GPVI (baboon). The experiment is described as follows: flow cytometry, washed baboon platelets (positive control). A general note: A flow cytometer gives signals particle by particle.

“recombinant human soluble GPVI:Fc (rhusGPVI:Fc) (from UniProt Q9HCN6 21-269) (Fc fusion)” registered a concentration of rhusGPVI:Fc needed to inhibit collagen-induced versus Cvx-induced platelet activation with collagen type I of 10 fold.

B1: convulxin (Cvx), purified from the venom of Crotalus durissus terrificus (ligand)
chain 1: GLHCPSDWYYYDQHCYRIFNEEMNWEDAEWFCTKQAKGAHLVSIKSAKEADFVAWMVTQNIEESFSHVSIGLRVQNKEKQCSTKWSDGSSVSYDNLLDLYITKCSLLKKETGFRKWFVASCIGKIPFVCKFPPQC
chain 2: GFCCPSHWSSYDRYCYKVFKQEMTWADAEKFCTQQHTGSHLVSFHSTEEVDFVVKMTHQSLKSTFFWIGANNIWNKCNWQWSDGTKPEYKEWHEEFECLISRTFDNQWLSAPCSDTYSFVCKFEA
As for B1, in experiment [1], the Baboon fluorescence intensity was found to be 72 and the Baboon platelets % positive stood at 95%.
